This note sets out measurements from patent US20230374132A1 (Innovent, published 2023).

Broadly, the Kd is the free concentration of one partner at which half of the binding sites on the other are occupied at equilibrium, for simple one-to-one binding. A low value points to tighter binding. By koff is commonly meant a measure of how fast the partners let go of each other. High values mean a short-lived complex, low ones a long-lived complex. A word on the kon: it is a measure of how fast the partners come together. Read a low kon as slower complex formation.

The chains are these.
B1: hzsp34.78 (antibody, human IgG1, lambda, L234A L235A, V domains shown)
VH: EVQLVESGGGLVQPGGSLKLSCAASGFTFGTYAMNWVRQASGKGLEWVGRIRSKYNNYATYYADSVKDRFTISRDDSKSTLYLQMNSLKTEDTAVYYCARHGNFGQSYVSWFAYWGQGTTVTVSS
VL: QAVVTQEPSLTVSPGGTVTLTCRSSTGAVTTSNYANWVQQKPGQAPRGLIGGTNKRAPGVPARFSGSLLGDKAALTLLGAQPEDEAEYYCALWYSNLWVFGQGTKLTVLG
notes: CDR mutant of hzsp34.24; IgG1 L234A L235A, lambda
B2: hzsp34.83 (antibody, human IgG1, lambda, L234A L235A, V domains shown)
VH: B1 VH with G30N, Y55A
VL: B1 VL
notes: as for B1
B3: hzsp34.81 (antibody, human IgG1, lambda, L234A L235A, V domains shown)
VH: B1 VH with G30N, R52S
VL: B1 VL
notes: as for B1
B4: hzsp34.85 (antibody, human IgG1, lambda, L234A L235A, V domains shown)
VH: B1 VH with G30N, N57G
VL: B1 VL
notes: as for B1
B5: hzsp34.86 (antibody, human IgG1, lambda, L234A L235A, V domains shown)
VH: B1 VH with G30N, H101A
VL: B1 VL
notes: as for B1
B6: hzsp34.80 (antibody, human IgG1, lambda, L234A L235A, V domains shown)
VH: B1 VH with G30N, Y32A
VL: B1 VL
notes: as for B1
B7: hzsp34.84 (antibody, human IgG1, lambda, L234A L235A, V domains shown)
VH: B1 VH with G30N, N56G
VL: B1 VL
notes: as for B1
B8: hzsp34.82 (antibody, human IgG1, lambda, L234A L235A, V domains shown)
VH: B1 VH with G30N, S53L
VL: B1 VL
notes: as for B1
B9: hzsp34.79 (antibody, human IgG1, lambda, L234A L235A, V domains shown)
VH: B1 VH with G30N, T31G
VL: B1 VL
notes: as for B1

Positions count from the first letter of the chain named. In names and notes the source's numbering stands.

T1 sequence (P07766 23-126, chain 1 of 2): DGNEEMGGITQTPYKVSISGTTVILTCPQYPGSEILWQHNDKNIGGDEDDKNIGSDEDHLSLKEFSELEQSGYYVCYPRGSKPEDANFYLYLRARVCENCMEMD
T1 sequence (P09693 23-116, chain 2 of 2): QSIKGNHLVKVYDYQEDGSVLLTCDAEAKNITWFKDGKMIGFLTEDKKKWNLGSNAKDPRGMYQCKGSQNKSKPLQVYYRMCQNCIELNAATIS

One assay addresses T1, human CD3E&G complex (Sino Biological Inc., CT041-H0305H) (human, UniProt P07766 23-126; P09693 23-116).
T1 construct: bought heterodimer; also called human CD3E&G antigen
Description: BLI, antibody on sensor. A general note: In BLI a coated tip is dipped into the sample, and binding shifts an interference pattern.
As for B1, the dissociation constant (Kd) was determined as 8.97 nM, the koff came out at 0.00224 s⁻¹ and the on-rate (kon) was found to be 250000 M⁻¹ s⁻¹.
B2 came in with a Kd of 3.6 nM, a dissociation rate constant (koff) of 0.000791 s⁻¹ and a kon of 220000 M⁻¹ s⁻¹.
The matching figures for B3: 11.1 nM, 0.00157 s⁻¹ and 142000 M⁻¹ s⁻¹.
For B4, the equilibrium dissociation constant (Kd) amounted to 8.08 nM, the koff is 0.00201 s⁻¹ and the kon is 249000 M⁻¹ s⁻¹.
In turn, B5 had a Kd of 6.61 nM, a koff of 0.00144 s⁻¹ and a kon of 219000 M⁻¹ s⁻¹.
For B6, the affinity, expressed as Kd, was 15.4 nM; the koff amounted to 0.00213 s⁻¹; the association rate constant (kon) was 138000 M⁻¹ s⁻¹.
In turn, B7 came in with a Kd of 4.89 nM, a dissociation rate constant (koff) of 0.00114 s⁻¹ and an on-rate (kon) of 233000 M⁻¹ s⁻¹.
For B8, in that order: 12 nM, 0.00191 s⁻¹ and 159000 M⁻¹ s⁻¹.
Regarding B9, the dissociation constant (Kd) came out at 6.36 nM, the off-rate (koff) is 0.00154 s⁻¹ and the on-rate (kon) amounted to 242000 M⁻¹ s⁻¹.

In the next assay the target is T2, human CD3 E&D complex protein (Sino Biological Inc., CT026H0323H) (human, UniProt P07766 23-126; P04234 22-105).
T2 construct: bought heterodimer; also called human CD3 protein (CT026H0323H)
T2 sequence (P07766 23-126, chain 1 of 2): as the sequence (P07766 23-126, chain 1 of 2) above
T2 sequence (P04234 22-105, chain 2 of 2): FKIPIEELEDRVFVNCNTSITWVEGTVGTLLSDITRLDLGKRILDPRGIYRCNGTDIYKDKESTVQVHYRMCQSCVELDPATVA
Description: BLI, antibody on sensor.
Take B1: binding was characterised by a dissociation constant (Kd) of 1.35 nM, the off-rate (koff) was 0.0003 s⁻¹ and the kon was 223000 M⁻¹ s⁻¹.
For B2, in that order: 0.928 nM, 0.0002 s⁻¹ and 216000 M⁻¹ s⁻¹.
In turn, B3 registered a Kd of 7.69 nM, a dissociation rate constant (koff) of 0.00143 s⁻¹ and a kon of 186000 M⁻¹ s⁻¹.
B4 displayed a Kd of 1.32 nM, a koff of 0.000304 s⁻¹ and an on-rate constant (kon) of 230000 M⁻¹ s⁻¹.
B5 gave a Kd of 1.39 nM, an off-rate constant (koff) of 0.000354 s⁻¹ and a kon of 255000 M⁻¹ s⁻¹.
The matching figures for B6: 6.55 nM, 0.00147 s⁻¹ and 225000 M⁻¹ s⁻¹.
With B7, the Kd came out at 0.812 nM, the off-rate constant (koff) came out at 0.0002 s⁻¹ and the kon was determined as 246000 M⁻¹ s⁻¹.
The matching figures for B8: 10.3 nM, 0.00168 s⁻¹ and 163000 M⁻¹ s⁻¹.
For B9, in that order: 0.507 nM, 0.000118 s⁻¹ and 233000 M⁻¹ s⁻¹.
